{
  "source": "patent US20170049848A1",
  "about": "“Target for Firmicutes and Related Bacteria: The PRP Protease” (VIRGINIA COMMONWEALTH UNIVERSITY, priority 2014, published 2017)",
  "molecules": {"B1": {"name": "Staphylococcus aureus Prp (phage-related ribosomal protease), wild type, untagged (protein)", "chain": "MITVDITVNDEGKVTDVIMDGHADHGEYGHDIVCAGASAVLFGSVNAIIGLTSERPDINYDDNGGHFHIRSVDTNNDEAQLILQTMLVSLQTIEEEYNENIRLNYK"}, "B2": {"name": "wild-type Prp: S. aureus phage-related ribosomal protease, cysteine protease that cleaves L27 (protein)", "chain": "B1 chain"}, "B3": {"name": "His6-SUMO-Prp N-terminal fusion protein (wild type) (protein)", "chain": "B1 chain"}},
  "key": {"[1]": {"test_system": "S. aureus ribosome assembly (70S ribosomes, 50S subunit)", "assay": "Polysome analysis (sucrose gradient ribosomal subunit profiles) of over-expression strains", "assay_type": "cell-based, Staphylococcus aureus", "details": "overexpression in S. aureus SA178RI, compared with empty vector", "method": "Polysome analysis. Overnight cultures of strains for polysome analysis were inoculated into a flask of media containing inducer and appropriate antibiotics (TSB with 2 μg/ml Tet, 30 μg/ml Chl and 1 mM IPTG) beginning at a 1:100 dilution and grown until they reached a Klett reading of 90 or for 4 hours. As noted above, S. aureus expressing Prp C34A will not grow above Klett 50 for over 8 hours, so this strain was grown at a double volume compared to the others so that an equivalent number of cells could be harvested. Cell pellets from at least 100 ml of culture were resuspended in buffer PA (20 mM Tris pH 7.8, 100 mM NH4Cl, 10 mM MgCl2, 6 mM beta mercaptoethanol), broken by bead beating and then cleared by centrifugation for 10 minutes at 13000 rpm at 4° C. The clarified cell lysates were applied to the top of 10-40% sucrose gradients in buffer PA. The gradients were centrifuged for 17 hours at 19000 rpm on an SW-28 rotor at 4° C. Gradients were analyzed for absorbance at 254 nm using a Biocomp Piston Gradient Fractionator with a BIORAD Econo UV Monitor with a Full Scale of 1.0. Data were recorded using DataQ DI-158-UP data acquisition software, as has been previously reported (O'Farrell, 2012). Areas under each peak were calculated using the trapezoid method. […]"}, "S. aureus strain SA178RI": {"test_system": "S. aureus strain SA178RI", "assay": "Growth curves of S. aureus strains over-expressing Prp, L27 variants or peptide", "assay_type": "cell-based, Staphylococcus aureus", "details": "T7 plasmid in SA178RI, induced with IPTG, 16 hours at 32° C.; strain still contains native L27 and Prp; compared with wild-type protein or empty vector", "text": "Bacterial Culture. All S. aureus strains used in this work are derivatives of the phage-cured, restriction-defective strain RN4220 (Kreiswirth, 1983). The S. aureus expression strain SA178RI carries a T7 RNA polymerase expression cassette under lac operator control (D'Elia, 2006). The plasmid used for expression in SA178RI was pG164, an E. coli-S. aureus shuttle vector carrying the T7 late promoter into which a lac operator, a multiple cloning site, an optimized gram-positive ribosome binding site, and a constitutively expressed copy of the lac repressor gene were introduced (D'Elia, 2006). S. aureus strains were grown in Trypticase Soy Broth (TSB) (Remel, Lenexa, Kans.) or Brain Heart Infusion (BHI) (Remel, Lenexa, Kans.) at 32° C.\nFor growth curve analysis of mutant over-expression strains, overnight cultures were inoculated directly into media containing inducer and appropriate antibiotics (TSB with 2 μg/ml tetracycline, 30 μg/ml chloramphenicol and 1 mM IPTG) and monitored at OD600 for 16 hours in a 96 well plate format Biotek Microplate reader.\nBoth L27 and Prp are essential in S. aureus. One common approach is to examine the effects of mutations in essential genes is to over-express mutant allele and assess the resulting phenotypes. […]"}, "[2]": {"assay": "Stability of quenched peptide substrate in solution", "assay_type": "physicochemical", "details": "monitored in solution over time, without enzyme", "text": "(§1) Development of Prp Assay In order to study Prp enzymology in vitro, an assay was designed using a quenched fluorescent peptide substrate derived from the cleavage motif on L27. The peptide KLNLQFFASKK (GI:15927225; SEQ ID NO:1) was chosen for its content of hydrophilic residues and fluorophore 2-amino benzoic acid (2-abz) was conjugated to the N terminus, with a dinitrophenol (Dnp) quencher conjugated to the C-terminus. The resulting peptide substrate (2abz-KLNLQFFASKK-Dnp; SEQ ID NO:1) was ordered from United Peptide in Herndon, Va. (now United Biosystems). The substrate was initially resuspended to 2 mM with a buffer containing 25 mM Tris pH8 and 300 mM NaCl. Fluorescence was measured using an excitation wavelength of 325 nm and an emission wavelength of 425 nm using a Photon Technology International QuantaMaster steady-state fluorescent spectrometer. Prp was initially purified and analyzed as a His6-SUMO N-terminal fusion protein from plasmid pEW34. His6-SUMO fusions were also made of PrpC34A (pEW39) and PrpC34S (pEW40).\nThe amino acid sequence of the substrate was selected to maximize its hydrophilic residue content, aiming for the greatest possible peptide solubility. […] The assay allows us to determine Prp kinetics, and the effects of any mutants on the Km or Kcat."}, "[3]": {"target": "Staphylococcus aureus L27 F8A-F9A with C-terminal Myc and His6 tags (un-cleavable), Q2FXT0"}, "[4]": {"test_system": "peptide substrate 2abz-KLNLQFFASKK-Dnp (L27 cleavage motif)", "assay": "Quenched fluorescent peptide Prp assay", "assay_type": "biochemical, Staphylococcus aureus", "details": "N-terminal His6-SUMO fusion proteins; excitation 325 nm, emission 425 nm", "text": "as §1, with “His6-SUMO fusions were also made of PrpC34A (pEW39) and PrpC34S (pEW40).” left out\nIn order to test the predictions that our model makes regarding residues important to substrate binding and catalysis and ultimately to search for inhibitors, it was necessary to design a high throughput-capable continuous fluorescent assay. […] In this type of assay, when the substrate is cleaved the fluorophore is released from its quenching partner and fluorescence readings at the fluorophore emission wavelength increase with time. […]"}, "[5]": {"target": "T1, 2abz-KLNLQFFASKK-Dnp quenched fluorescent peptide substrate", "T1 chain": "KLNLQFFASKK"}},
  "note": "Primed or numbered codes have the meaning given here. Where no end group is shown, it is not given here. [ ]: non-standard residue; d: D form. Dnp″ = dinitrophenol quencher on C-terminus; 2Abz = Nc1ccccc1C(=O)O",
  "data": [
    {"molecule": "MLKLNLQFF", "values": [
      {"measurement": "effect on ribosomal subunit profile", "setting": "[1]", "result": "no anomalies"},
      {"measurement": "effect on S. aureus growth upon overexpression", "setting": "S. aureus strain SA178RI", "result": "pronounced lag in the middle of the exponential growth phase"}
    ]},
    {"molecule": "2abz-KLNLQFFASKK-Dnp ([2Abz]KLNLQFFASKK-{Dnp″}) [quenched fluorescent peptide substrate, 2-amino benzoic acid at N terminus, dinitrophenol quencher at C-terminus]", "values": [
      {"measurement": "stability of peptide in solution", "setting": "[2]", "result": "stable and did not self-cleave or change fluorescence over time"}
    ]},
    {"molecule": "B1", "values": [
      {"measurement": "N-terminal cleavage of L27 (Western blot)", "setting": "[3]", "result": "this protein with N-terminal residues […] was no longer cleaved by Prp via Western blot"}
    ]},
    {"molecule": "B2", "values": [
      {"measurement": "effect on ribosomal subunit profile", "setting": "[1]", "result": "did not deviate significantly from empty vector"},
      {"measurement": "fluorescence increase / catalysis with quenched peptide substrate", "setting": "[4]", "result": "fluorescence increase only occurred in the presence of wild type Prp"}
    ]},
    {"molecule": "B3", "values": [
      {"measurement": "fluorescence increase in the quenched fluorescent peptide assay", "setting": "[5]", "result": "fluorescence increase only occurred in the presence of wild type Prp fusion proteins"}
    ]}
  ]
}
